Key:
[1] = Hydrolysis of long-chain sn-2 phospholipid by recombinant PAF-AH; format: biochemical; conditions: incubated with recombinant PAF-AH
Protocol: The most remarkable property of the PAF acetylhydrolase is its marked specificity for substrates with a short residue at the sn-2 position of the substrate. This strict specificity distinguishes PAF acetylhydrolase from other forms of PLA2. Thus, to determine if recombinant PAF-AH degrades phospholipids with long-chain fatty acids at the sn-2 position, hydrolysis of 1-palmitoyl-2-arachidonoyl-sn-glycero-3-phosphocholine (arachidonoylPC) was assayed since this is the preferred substrate for a well-characterized form of PLA2. […] In additional experiments, arachidonoylPC was included in a standard PAF hydrolysis assay at concentrations ranging from 0 to 125 μM to determine whether it inhibited the hydrolysis of PAF by recombinant PAF-AH. There was no inhibition of PAF hydrolysis even at the highest concentration of […], which was 5-fold greater than the concentration of PAF. […] Native plasma PAF-AH has several other properties that distinguish it from other phospholipases including calcium-independence and resistance to compounds that modify sulfhydryl groups or disrupt disulfides.

[2] = PAF-AH activity of E. coli constructs with extended amino termini (lysate, media); format: biochemical; conditions: trp promoter
Protocol: PAF-AH activity in transfectant supernatants was determined by the method of Stafforini et al. (1990), supra, with the following modifications. Briefly, PAF-AH activity was determined by measuring the hydrolysis of ^3H-acetate from [acetyl-^3H) PAF (New England Nuclear, Boston, Mass.). The aqueous free ^3H-acetate was separated from labeled substrate by reversed-phase column chromatography over octadecylsilica gel cartridges (Baker Research Products, Phillipsburg, Pa.). Assays were carried out using 10 μl transfectant supernatant in 0.1M Hepes buffer, pH 7.2, in a reaction volume of 50 μl. A total of 50 pmoles of substrate were used per reaction with a ratio of 1:5 labeled: cold PAF. Reactions were incubated for 30 minutes at 37° C. and stopped by the addition of 40 μl of 10M acetic acid. The solution was then washed through the octadecylsilica gel cartridges which were then rinsed with 0.1M sodium acetate. The aqueous eluate from each sample was collected and counted in a liquid scintillation counter for one minute. Enzyme activity was expressed in counts per minute.
and encompassed the termination codon of sAH 406-3 and contained an EcoRV cloning site. PCR reactions were performed essentially as described in Example 3. The resulting PCR product was digested with XbaI and EcoRV and subcloned into a pBR322 vector containing the Trp promoter [deBoer et al., PNAS. 80:21-25 (1983)] immediately upstream of the cloning site. E. coli strain XL-1 Blue was transformed with the expression construct and cultured in L broth containing 100 μg/ml of carbenicillin. Transformants from overnight cultures were pelleted and resuspended in lysis buffer containing 50 mM Tris-HCl pH 7.5, 50 mM NaCl, 10 mM CHAPS, 1 mM EDTA, 100 μg/ml lysozyme, and 0.05 trypsin-inhibiting units (TIU)/ml Aprotinin. Following a 1 hour incubation on ice and sonication for 2 minutes, the lysates were assayed for PAF-AH activity by the method described in Example 4. E. coli transformed with the expression construct (designated trp AH) generated a product with PAF-AH activity.
Several E. coli expression constructs were also evaluated which produce PAF-AH with extended amino termini. The N-terminus of natural plasma PAF-AH was identified as Ile42 by amino acid sequencing (Example 2). […] Acids Res., 14:4683-4690 (1986)]. Presumably a more classical signal sequence (M1-A17) is recognized by the cellular secretion system, followed by endoproteolytic cleavage. The entire coding sequence for PAF-AH beginning at the initiating methionine (nucleotides 162 to 1487 of SEQ ID NO: 7) was engineered for expression in E. coli using the trp promoter. […] Another expression construct, beginning at Val18 (nucleotides 213 to-1487 of SEQ ID NO: 7), produced active PAF-AH at about one third the level of the original construct.

B1: PAF-AH: Recombinant human plasma platelet-activating factor acetylhydrolase (beginning at Ile42) expressed in E. coli from construct pUC trp AH (protein)
chain: IQVLMAAASFGQTKIPRGNGPYSVGCTDLMFDHTNKGTFLRLYYPSQDNDRLDTLWIPNKEYFWGLSKFLGTHWLMGNILRLLFGSMTTPANWNSPLRPGEKYPLVVFSHGLGAFRTLYSAIGIDLASHGFIVAAVEHRDRSASATYYFKDQSAAEIGDKSWLYLRTLKQEEETHIRNEQVRQRAKECSQALSLILDIDHGKPVKNALDLKFDMEQLKDSIDREKIAVIGHSFGGATVIQTLSEDQRFRCGIALDAWMFPLGDEVYSRIPQPLFFINSEYFQYPANIIKMKKCYSPDKERKMITIRGSVHQNFADFTFATGKIIGHMLKLKGDIDSNVAIDLSNKASLAFLQKHLGLHKDFDQWDCLIEGDDENLIPGTNINTTNQHIMLQNSSGIEKYN
For B1, the “Hydrolysis of arachidonoylPC” value [1] was “not hydrolyzed”, the “PAF-AH activity, Lysate” value ([2]; E. coli lysate) was 177.7 U/ml/OD600 and the “PAF-AH activity, Media” value ([2]; E. coli media) was 0.030 U/ml/OD600.
